In publication PMC2234471 (The Journal of General Physiology, 2003):
One block for each binder: values may come before it.

Biological target: purified recombinant vertebrate CaM ( ("vertebrate"), UniProt P0DP23 1-149)
Assay: native gel or EMSA

binding result: binds
B1: IQ2 peptide of KCNQ2 (508–530) (peptide)
peptide: SIRAVCVMRFLVSKRKFKESLR

binding result: binds
B2: IQ2 peptide of KCNQ3 (481–503) (peptide)
peptide: AIRAVRILQFRLYKKKFKETLR
